Source: US20100240056

Test system: EcR-B/VP16-USP heterodimer (Leptinotarsa decemlineata)
Test: EMSA
Conditions: reference band for densitometry; little change with agonist

With hsp27 EcRE probe as the substance, how does the binding signal read?
The binding signal was 1.
